Experimental data published in paper PMC8203652, “Facile fabrication of antibacterial and antiviral perhydrolase-polydopamine composite coatings” (Scientific Reports, 2021).

Substrate: CC(=O)OCC(C)OC(C)=O
Assay: purified protein
Format: biochemical, Mycolicibacterium smegmatis
Conditions: free enzyme; 200 mM H2O2 constant, PGD 3-100 mM, PBS; apparent (two-substrate reaction)

B1: AcT (perhydrolase S54V) (Mycolicibacterium smegmatis MC2 155; S54V) (protein)
chain: MAKRILCFGDSLTWGWVPVEDGAPTERFAPDVRWTGVLAQQLGADFEVIEEGLVARTTNIDDPTDPRLNGASYLPSCLATHLPLDLVIIMLGTNDTKAYFRRTPLDIALGMSVLVTQVLTSAGGVGTTYPAPKVLVVSPPPLAPMPHPWFQLIFEGGEQKTTELARVYSALASFMKVPFFDAGSVISTDGVDGIHFTEANNRDLGVALAEQVRSLL
notes: synthetic gene in pET28a, N-terminal His8 tag and thrombin site (LVPRGS), expressed in E. coli BL21(DE3), Ni-NTA purified; MW 180 kDa printed; S54V printed in the introduction only
B1 gave a Km of 13 mM and a kcat of 4700 s⁻¹.
